Assay results from patent US11510990B2, “Conjugates of fusion proteins of GLP-1 and FGF21” (BEIJING QL BIOPHARMACEUTICAL CO., LTD., priority 2020, dated 2022).
Residue numbers refer to the chain shown, from its start.

B1: Compound 71: GLP-1/FGF21 fusion polypeptide SEQ ID NO: 168 conjugated with Moiety B at 52C and 282C (conjugate)
chain: HGEGTFTSDVSSYLEEQAAKEFIAWLVKGGGGAQPGAQPGAQPGAQPGAQPCQAPGAQPGAQPGAQPGAQPGAQPGAQPGAQPGAQPGAQPGAQPGAQPGAQPGAQPGAQPHPIPDSSPLLQFGGQVRQRYLYTDDAQQTEAHLEIREDGTVGGAADQSPESLLQLKALKPGVIQILGVKTSRFLCQRPDGALYGSLHFDPEACSFRELLLEDGYNVYQSEAHGLPLHLPGQKSPHRDPAPRGPARFLPLPGLPPALPEPPGILAPQPPDVGSSDPLSLVGCSQGRSPSYES
modifications: Moiety B conjugated at C52 and C282
B2: Compound 72: GLP-1/FGF21 fusion polypeptide SEQ ID NO: 169 conjugated with Moiety B at 62C and 282C (conjugate)
chain: B1 chain with C52G, Q53A, A54Q, A61Q, Q62C
modifications: Moiety B conjugated at C62 and C282
B3: Compound 73: GLP-1/FGF21 fusion polypeptide SEQ ID NO: 170 conjugated with Moiety B at 42C and 282C (conjugate)
chain: B1 chain with A41Q, Q42C, C52G, Q53A, A54Q
modifications: Moiety B conjugated at C42 and C282
B4: Compound 66: GLP-1/FGF21 fusion polypeptide SEQ ID NO: 163 conjugated with Moiety B at 51C and 225C (conjugate)
chain: HGEGTFTSDVSSYLEEQAAKEFIAWLVKGGGGSAPGSPAGSPTGSAPGSPCHPIPDSSPLLQFGGQVRQRYLYTDDAQQTEAHLEIREDGTVGGAADQSPESLLQLKALKPGVIQILGVKTSRFLCQRPDGALYGSLHFDPEACSFRELLLEDGYNVYQSEAHGLPLHLPGQKSPHRDPAPRGPARFLPLPGLPPALPEPPGILAPQPPDVGSSDPLSLVGGSQCRSPSYES
modifications: Moiety B conjugated at C51 and C225
B5: Compound 4: GLP-1/FGF21 fusion polypeptide SEQ ID NO: 4 conjugated with Moiety A at 51K and 231K (conjugate)
chain: HGEGTFTSDVSSYLEEQAAREFIAWLVRGGGGGGGSGGGGSGGGGSGGGGKHPIPDSSPLLQFGGQVRQRYLYTDDAQQTEAHLEIREDGTVGGAADQSPESLLQLRALRPGVIQILGVRTSRFLCQRPDGALYGSLHFDPEACSFRELLLEDGYNVYQSEAHGLPLHLPGQRSPHRDPAPRGPARFLPLPGLPPALPEPPGILAPQPPDVGSSDPLSLVGGSQGRSPSYKS
modifications: Moiety A conjugated at K51 and K231
B6: Compound 19: GLP-1/FGF21 fusion polypeptide SEQ ID NO: 19 conjugated with Moiety A at 51K and 222K (conjugate)
chain: B5 chain with G222K, K231E
modifications: Moiety A conjugated at K51 and K222
B7: Compound 9: GLP-1/FGF21 fusion polypeptide SEQ ID NO: 9 conjugated with Moiety A at 231K (conjugate)
chain: B5 chain with K51S
modifications: Moiety A conjugated at K231
B8: Compound 63: GLP-1/FGF21 fusion polypeptide SEQ ID NO: 160 conjugated with Moiety B at 51C and 222C (conjugate)
chain: B5 chain with R20K, R28K, K51C, R107K, R110K, R120K, R173K, G222C, K231E
modifications: Moiety B conjugated at C51 and C222
B9: Compound 10: GLP-1/FGF21 fusion polypeptide SEQ ID NO: 10 conjugated with Moiety A at 222K (conjugate)
chain: B5 chain with K51S, G222K, K231E
modifications: Moiety A conjugated at K222

Columns and labels:
[1] = Body weight reduction in C57BL/6 mice, daily subcutaneous dosing; format: in vivo; settings: for Body weight reduction at 30 nmol/kg (% reduction compared to vehicle)(Day11): male C57BL/6 mice, 30 nmol/kg subcutaneously everyday, Day 11; for BW reduction compared to Semaglutide: 30 nmol/kg, 10-day dosing period (FIGS. 1A-1B)
Method: FIGS. 1A-1F show in vivo activities of fusion protein conjugates. […] Body weight was measured daily. […] Compared to Vehicle control: ***, p<0.001. All data are expressed as mean values and standard error (SEM).
10 week old male C57BL/6 mice were injected everyday subcutaneously with 30 nmol/kg exemplary fusion protein conjugates for 10 or 14 days (n=5). Body weight was daily monitored for each individual animal. Day 1 and Day 10 (or Day 14) are first day and last day of molecule dosage. % BW loss=100*(BW on Day n-BW on Day 1)/(BW on Day 1). Data are indicated as mean values and standard error (SEM) or pooled values. Statistical analysis was performed by One-way ANOVA. Body weight reduction on Day 11 in Table 5 is calculated by −1*(% BW loss−% BW loss of vehicle group).

[2] = Pharmacokinetic measurement in C57BL/6 mice, single subcutaneous dose, plasma ELISA; format: in vivo; settings: for AUC compared to non-acylated fusion protein (Compound 3) / Half-lives of double acylated compared to monoacylated Compounds 9 and 10 / PK properties compared to Semaglutide: 30 nmol/kg subcutaneous; for AUClast / Cmax / Terminal t1/2 / Tmax: single subcutaneous dose 30 nmol/kg, plasma
Method: Each fusion protein conjugate was injected subcutaneously into C57BL/6 mice (n=3/group) once and plasma samples were collected at designed timepoints and analyzed by ELISA method. Plasma concentrations are indicated as mean values and standard error (SEM).
6-8 week old male C57BL/6 mice were administrated in a single subcutaneous dose of 30 nmol/kg of the exemplary fusion protein conjugates (Compounds 4, 9, 10, 19, 63) or the non-acylated fusion protein (i.e., Compound 3, which has the amino acid sequence identical to Compound 2 but without any conjugation) (n=3/group). Plasma samples were collected pre-dose (−5 min), 0.5 hr, 1 hr, 2 hr, 4 hr, 6 hr, 8 hr, 12 hr and 24 hr hours after the injection. For Compound 3, plasma collection timepoints were −5 min, 0.25 h, 0.5 h, 1 h, 2 h, 4 h and 6 h. The concentrations of the fusion protein conjugates or the non-acylated fusion protein in the plasma were measured by an ELISA assay which has immunoreactivities towards both C-terminal FGF21 and intact N-terminal of GLP-1. Based on the graph showing plasma concentration of each protein versus time after subcutaneous injection, the pharmacokinetic parameters were calculated by WinNonlin.
Pharmacokinetic data were analyzed by WinNonlin software. Tmax, Cmax, T1/2, AUC and MRT were calculated for each molecule.

[3] = Body weight in DIO mice: fusion protein conjugate against GLP1 alone and FGF21 alone; format: in vivo, DIO male C57BL/6 mice; settings: both 10 nmol/kg and 30 nmol/kg, subcutaneously everyday for 21 days
Method: FIGS. 3A-3B show in vivo efficacy in DIO mice. To evaluate the body weight effect of the fusion proteins, 17 week old DIO mice (C57BL/6 mice on high fat diet for 13 weeks) were dosed everyday subcutaneously with different concentrations of compounds for 21 days. […] Data are expressed as mean values and standard error (SEM). n=5 for each treatment group.
17 week old DIO male C57BL/6 mice (˜45 g) were injected everyday subcutaneously with designated proteins (i.e., Compounds 63, 69 and 70) for 21 days. Body weight was measured daily and five animals were used for each treatment group. Day 1 and Day 21 are first day and last day of molecule dosage. % BW loss=100*(BW on Day n-BW on Day 1)/(BW on Day 1). Data are indicated as mean values and standard error (SEM).

[4] = Efficacy study in DIO mice: body weight, fasting glucose, insulin, triglycerides; format: in vivo, DIO male C57BL/6 mice
Method: FIGS. 4A-4F show in vivo efficacy in DIO mice. To evaluate effects of the compounds on the body weight, blood glucose, plasma insulin and plasma triglyceride in vivo, 17-week old DIO mice (C57BL/6 mice on high fat diet for 13 weeks) were dosed everyday subcutaneously with different concentrations of compounds for 21 days. […] Data are expressed as mean values and standard error (SEM). n=5 for each treatment group.
17 week old DIO male C57BL/6 mice (˜45 g) were injected everyday subcutaneously with designated proteins (i.e., Compound 63) for 21 days. Body weight was measured daily and five animals were used for each treatment group. Fasting glucose was also monitored on designated days. Body weight and glucose were monitored for each individual animal. Day 1 and Day 21 are first day and last day of molecule dosage. % BW loss=100*(BW on Day n-BW on Day 1)/(BW on Day 1). Terminal blood was collected and EDTA-2k plasma was prepared and frozen in −80° C. for biomarker measurement. Livers were also collected and frozen in liquid nitrogen and stored in −80° C.
Data are indicated as mean values and standard error (SEM). Statistical analysis was performed by One-way ANOVA.

Molecule | Body weight reduction at 30 nmol/kg (% reduction compared to vehicle)(Day11) [1] [%] | BW reduction compared to Semaglutide [1] | AUC compared to non-acylated fusion protein (Compound 3) [2] | Half-lives of double acylated compared to monoacylated Compounds 9 and 10 [2] | PK properties compared to Semaglutide [2] | AUClast [2] [µM·h] | Cmax [2] [nM] | Terminal t1/2 [2] [h] | Tmax [2] [h] | Body weight control compared to GLP1 alone (Compound 70) and FGF21 alone (Compound 69) [3] | Body weight, glycemic control and lipid profile compared to 30 nmol/kg Semaglutide ([4]; 30 nmol/kg subcutaneously everyday for 21 days) | Dose dependence of efficacy ([4]; comparing 10 nmol/kg and 30 nmol/kg)
B1 | 24.5 | – | – | – | – | – | – | – | – | – | – | –
B2 | 25.8 | – | – | – | – | – | – | – | – | – | – | –
B3 | 20.2 | – | – | – | – | – | – | – | – | – | – | –
B4 | 18.9 | – | – | – | – | – | – | – | – | – | – | –
B5 | 27.0 | much more enhanced and persistent BW reduction | larger AUC | significantly prolonged half-lives | better PK properties | 1.0196 | 58.3 | 19.7 | 8 | – | – | –
B6 | 27.0 | – | larger AUC | significantly prolonged half-lives | better PK properties | 1.018 | 59.9 | 10.8 | 4 | – | – | –
B7 | 27.2 | – | larger AUC | – | – | 0.7912 | 65.6 | 3.5 | 6 | – | – | –
B8 | 24.5 | – | larger AUC | – | – | 1.2948 | 88.8 | 16.7 | 6.7 | better body weight control | better body weight and glycemic control and lipid profile | Dose dependent efficacy
B9 | 20.0 | much more enhanced and persistent BW reduction | larger AUC | – | – | 0.4651 | 50.2 | 1.9 | 4 | – | – | –
